Values belong to the binder of their own block, whether it stands above or below them.
Columns and labels:
calmodulin (CaM) = calmodulin (CaM) (human, UniProt P0DP23 2-149); test: Co-IP in endothelial cells; not affected by Myr-CBD7 pretreatment
mouse eNOS = molecular target: T1, mouse eNOS (mouse, UniProt P70313 2-1202); test: Co-IP from mouse wounds (FIG. 4)
T1 construct: whole, on cells; Endogenous protein in mouse wound homogenates used for Co-IP; also called eNOS (mouse wounds)
T1 sequence (looked up): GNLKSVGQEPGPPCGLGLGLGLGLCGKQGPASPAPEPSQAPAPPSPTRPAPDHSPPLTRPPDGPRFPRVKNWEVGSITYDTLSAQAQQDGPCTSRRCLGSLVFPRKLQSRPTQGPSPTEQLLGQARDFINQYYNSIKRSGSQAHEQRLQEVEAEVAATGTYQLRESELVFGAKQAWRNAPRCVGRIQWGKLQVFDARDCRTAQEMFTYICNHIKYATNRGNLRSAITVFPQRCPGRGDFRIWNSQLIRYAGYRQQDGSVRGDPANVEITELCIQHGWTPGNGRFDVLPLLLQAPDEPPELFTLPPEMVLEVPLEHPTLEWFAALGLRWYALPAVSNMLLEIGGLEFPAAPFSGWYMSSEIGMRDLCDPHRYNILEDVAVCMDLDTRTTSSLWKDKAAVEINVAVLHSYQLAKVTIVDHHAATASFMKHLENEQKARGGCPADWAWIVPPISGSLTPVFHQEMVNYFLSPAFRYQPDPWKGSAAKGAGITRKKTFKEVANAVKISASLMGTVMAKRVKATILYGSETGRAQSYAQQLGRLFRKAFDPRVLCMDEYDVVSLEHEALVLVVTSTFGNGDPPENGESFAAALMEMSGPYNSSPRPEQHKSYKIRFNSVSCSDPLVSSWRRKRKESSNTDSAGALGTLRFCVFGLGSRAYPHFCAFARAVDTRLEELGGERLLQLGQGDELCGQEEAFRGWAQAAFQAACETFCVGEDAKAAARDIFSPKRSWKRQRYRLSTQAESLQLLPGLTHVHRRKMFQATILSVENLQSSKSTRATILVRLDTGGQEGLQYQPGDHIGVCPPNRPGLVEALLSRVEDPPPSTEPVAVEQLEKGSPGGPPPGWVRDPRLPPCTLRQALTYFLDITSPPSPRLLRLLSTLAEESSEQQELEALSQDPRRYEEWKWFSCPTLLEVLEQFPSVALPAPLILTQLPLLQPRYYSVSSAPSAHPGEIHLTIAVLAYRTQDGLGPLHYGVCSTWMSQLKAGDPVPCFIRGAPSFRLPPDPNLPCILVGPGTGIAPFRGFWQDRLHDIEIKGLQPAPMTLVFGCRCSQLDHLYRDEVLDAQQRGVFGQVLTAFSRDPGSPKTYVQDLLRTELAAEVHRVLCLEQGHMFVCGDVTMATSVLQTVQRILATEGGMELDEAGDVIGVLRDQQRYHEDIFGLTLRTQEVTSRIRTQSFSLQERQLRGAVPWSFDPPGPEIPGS

binding result (calmodulin (CaM)): binds
B1: human endothelial nitric oxide synthase (eNOS) (enzyme)
chain: GNLKSVAQEPGPPCGLGLGLGLGLCGKQGPATPAPEPSRAPASLLPPAPEHSPPSSPLTQPPEGPKFPRVKNWEVGSITYDTLSAQAQQDGPCTPRRCLGSLVFPRKLQGRPSPGPPAPEQLLSQARDFINQYYSSIKRSGSQAHEQRLQEVEAEVAATGTYQLRESELVFGAKQAWRNAPRCVGRIQWGKLQVFDARDCRSAQEMFTYICNHIKYATNRGNLRSAITVFPQRCPGRGDFRIWNSQLVRYAGYRQQDGSVRGDPANVEITELCIQHGWTPGNGRFDVLPLLLQAPDDPPELFLLPPELVLEVPLEHPTLEWFAALGLRWYALPAVSNMLLEIGGLEFPAAPFSGWYMSTEIGTRNLCDPHRYNILEDVAVCMDLDTRTTSSLWKDKAAVEINVAVLHSYQLAKVTIVDHHAATASFMKHLENEQKARGGCPADWAWIVPPISGSLTPVFHQEMVNYFLSPAFRYQPDPWKGSAAKGTGITRKKTFKEVANAVKISASLMGTVMAKRVKATILYGSETGRAQSYAQQLGRLFRKAFDPRVLCMDEYDVVSLEHETLVLVVTSTFGNGDPPENGESFAAALMEMSGPYNSSPRPEQHKSYKIRFNSISCSDPLVSSWRRKRKESSNTDSAGALGTLRFCVFGLGSRAYPHFCAFARAVDTRLEELGGERLLQLGQGDELCGQEEAFRGWAQAAFQAACETFCVGEDAKAAARDIFSPKRSWKRQRYRLSAQAEGLQLLPGLIHVHRRKMFQATIRSVENLQSSKSTRATILVRLDTGGQEGLQYQPGDHIGVCPPNRPGLVEALLSRVEDPPAPTEPVAVEQLEKGSPGGPPPGWVRDPRLPPCTLRQALTFFLDITSPPSPQLLRLLSTLAEEPREQQELEALSQDPRRYEEWKWFRCPTLLEVLEQFPSVALPAPLLLTQLPLLQPRYYSVSSAPSTHPGEIHLTVAVLAYRTQDGLGPLHYGVCSTWLSQLKPGDPVPCFIRGAPSFRLPPDPSLPCILVGPGTGIAPFRGFWQERLHDIESKGLQPTPMTLVFGCRCSQLDHLYRDEVQNAQQRGVFGRVLTAFSREPDNPKTYVQDILRTELAAEVHRVLCLERGHMFVCGDVTMATNVLQTVQRILATEGDMELDEAGDVIGVLRDQQRYHEDIFGLTLRTQEVTSRIRTQSFSLQERQLRGAVPWAFDPPGSDTNSP
notes: whole, on cells; Endogenous intracellular / membrane-associated protein of human endothelial cells; co-immunoprecipitated from lysates

binding result (mouse eNOS): binds
B2: mouse CCR10 (receptor, UniProt Q9JL21 1-362, looked up)
chain: MGTKPTEQVSWGLYSGYDEEAYSVGPLPELCYKADVQAFSRAFQPSVSLMVAVLGLAGNGLVLATHLAARRTTRSPTSVHLLQLALADLLLALTLPFAAAGALQGWNLGSTTCRAISGLYSASFHAGFLFLACISADRYVAIARALPAGQRPSTPSRAHLVSVFVWLLSLFLALPALLFSRDGPREGQRRCRLIFPESLTQTVKGASAVAQVVLGFALPLGVMAACYALLGRTLLAARGPERRRALRVVVALVVAFVVLQLPYSLALLLDTADLLAARERSCSSSKRKDLALLVTGGLTLVRCSLNPVLYAFLGLRFRRDLRRLLQGGGCSPKPNPRGRCPRRLRLSSCSAPTETHSLSWDN
notes: whole, on cells; Endogenous protein in mouse wound homogenates used for Co-IP; also called CCR10 (mouse wounds)

Source: patent US20220265759A1 (BOARD OF TRUSTEES OF THE UNIVERSITY OF ILLIOIS, published 2022)
